# Experimental data as given in patent EP4138793B1, “NOVEL NON-PROTEINIC FURIN INHIBITOR” (priority 2020, dated 2021).
# The star is where a group is joined. Decanoyl = CCCCCCCCCC(=O)*; CH2Cl = ClC*
# Target: furine humaine recombinante (Homo sapiens, UniProt P09958)
# Test: Inhibition of furin enzyme activity (cleavage of a fluorescent substrate)
# Assay type: biochemical
# Details: reference inhibitor tested at 100 nm
# Experimental: L'expérience est réalisée en utilisant une furine humaine recombinante, qui catalyse le clivage d'un substrat spécifique fluorescent.
# Le décanoyl-Arg-Val-Lys-Arg-CMK à 100 nm a été utilisé comme inhibiteur de référence de l'activité de la furine.
# La furine est pré-incubée pendant 10 minutes à température ambiante en l'absence (contrôle) ou en présence du produit de référence ou de concentrations croissantes du composé testé : «Amyrines purifiées de Protium heptaphyllum»; 25 ppm; 250 ppm et 1000 ppm (v / v). Le produit «Amyrines purifiées de Protium heptaphyllum» , AMY à 1000 PPM correspond à une solution 0,5% en volume du produit HTRE commercialisé par la société Ephyla.
# À la fin de l'étape de pré-incubation, un substrat de furine a été ajouté et les conditions expérimentales ont été incubées à nouveau à température ambiante à l'abri de la lumière pendant 5 minutes. Toutes les expériences ont été réalisées en triplicate.
# Le composé d'essai " Amyrines purifiées de Protium heptaphyllum " pré-solubilisé à 10 000 ppm dans du DMSO. La solution a ensuite été diluée dans du tampon d'essai afin d'atteindre les concentrations décrite ci-dessus.
# Le clivage du substrat fluorescent de furine a été suivi pendant 5 minutes après l'addition du substrat en lisant la fluorescence à 485 nm / 535 nm.
# Les résultats sont exprimés en RFU (unités fluorescentes relatives) +/- S.D. (Écart-type).
# Sequence of furine humaine recombinante (P09958 108-794): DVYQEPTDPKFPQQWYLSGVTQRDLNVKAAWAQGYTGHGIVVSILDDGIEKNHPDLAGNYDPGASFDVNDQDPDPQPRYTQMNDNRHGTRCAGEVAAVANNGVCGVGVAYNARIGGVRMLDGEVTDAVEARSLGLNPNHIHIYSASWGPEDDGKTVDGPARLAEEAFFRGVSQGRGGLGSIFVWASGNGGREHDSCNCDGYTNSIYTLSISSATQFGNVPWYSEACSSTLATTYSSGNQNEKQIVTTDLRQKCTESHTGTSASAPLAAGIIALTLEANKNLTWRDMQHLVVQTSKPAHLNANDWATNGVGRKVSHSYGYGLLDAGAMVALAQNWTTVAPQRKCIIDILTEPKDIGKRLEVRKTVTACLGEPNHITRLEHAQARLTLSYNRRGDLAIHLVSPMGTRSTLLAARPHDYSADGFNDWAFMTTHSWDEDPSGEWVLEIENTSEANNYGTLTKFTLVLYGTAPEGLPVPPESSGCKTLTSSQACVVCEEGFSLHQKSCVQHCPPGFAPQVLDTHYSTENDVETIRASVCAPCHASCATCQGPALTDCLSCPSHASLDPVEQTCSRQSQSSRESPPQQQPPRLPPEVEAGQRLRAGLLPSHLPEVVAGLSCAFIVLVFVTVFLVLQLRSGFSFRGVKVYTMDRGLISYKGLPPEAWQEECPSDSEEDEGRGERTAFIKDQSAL
substance,measurement,value
Decanoyl-Arg-Val-Lys-Arg-CMK (Decanoyl-RVKR-CH2Cl),inhibition de l'activité de la furine,"97,9%"
